The values that follow come from article PMC6335422 (Nature Communications, 2019).

The labels stand for the following.
T1: GST-tagged Mmi1^1-122 amino-terminal fragment (S. pombe, UniProt O74958 1-122)
T1 construct: Vector Tev4T1 (modified pGEX-4T1 with a TEV site); source: E. coli BL21 (Gold), purified (glutathione sepharose, SEC)
T1 sequence (looked up): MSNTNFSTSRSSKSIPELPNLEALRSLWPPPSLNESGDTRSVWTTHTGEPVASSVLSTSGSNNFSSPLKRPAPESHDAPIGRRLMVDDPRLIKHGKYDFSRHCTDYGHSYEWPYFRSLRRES

T2: Erh1 H9A (S. pombe, UniProt G2TRN4 1-104, H9A)
T2 construct: Erh1, S. pombe, residues 1-104, point mutant made with the MutanBEST kit; source: E. coli BL21 (Gold), purified (Ni-chelating resin, size-exclusion chromatography)
T2 sequence (looked up): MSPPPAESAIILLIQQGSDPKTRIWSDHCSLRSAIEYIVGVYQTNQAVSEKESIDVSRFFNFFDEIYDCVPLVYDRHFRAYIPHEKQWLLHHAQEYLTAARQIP

T3: Erh1 R23A (S. pombe, UniProt G2TRN4 1-104, R23A)
T3 construct: Erh1, S. pombe, residues 1-104, point mutant made with the MutanBEST kit; source: E. coli BL21 (Gold), purified (Ni-chelating resin, size-exclusion chromatography)
T3 sequence (looked up): T2 sequence (looked up) with A9H, R23A

T4: Erh1 D27A (S. pombe, UniProt G2TRN4 1-104, D27A)
T4 construct: Erh1, S. pombe, residues 1-104, point mutant made with the MutanBEST kit; source: E. coli BL21 (Gold), purified (Ni-chelating resin, size-exclusion chromatography)
T4 sequence (looked up): T2 sequence (looked up) with A9H, D27A

T5: Erh1 D68A (S. pombe, UniProt G2TRN4 1-104, D68A)
T5 construct: Erh1, S. pombe, residues 1-104, point mutant made with the MutanBEST kit; source: E. coli BL21 (Gold), purified (Ni-chelating resin, size-exclusion chromatography)
T5 sequence (looked up): T2 sequence (looked up) with A9H, D68A

T6: Erh1 E85A (S. pombe, UniProt G2TRN4 1-104, E85A)
T6 construct: Erh1, S. pombe, residues 1-104, point mutant made with the MutanBEST kit; source: E. coli BL21 (Gold), purified (Ni-chelating resin, size-exclusion chromatography)
T6 sequence (looked up): T2 sequence (looked up) with A9H, E85A

B1: His-tagged Erh1 (residues 1-104) (natural protein, S. pombe, UniProt G2TRN4 1-104, looked up)
chain: T2 sequence (looked up) with A9H
notes: Erh1 (Enhancer of rudimentary homolog 1), S. pombe, residues 1-104; Cloned into p28a, a modified pET28a without a thrombin cleavage site; Homodimer by SEC and in the crystal; also called Enhancer of rudimentary homolog 1; source: E. coli BL21 (Gold), purified (Ni-chelating resin, SEC)
B2: Erh1: S. pombe ortholog of human ERH (protein)
chain: T2 sequence (looked up) with A9H
modifications: left off: His6, end not stated, state not stated
notes: S. pombe ortholog of human ERH
B3: GST-tagged YTH domain of Mmi1: carboxy-terminal YTH domain of Mmi1, purified GST fusion (protein)
chain: SRYFIMLCDNETAIAHAKKTSIWAVKKDSSKRISDAYKKASVYFIFVAQQTYNALGYAQVVSDLNSTELPFWSDSSHAGGVRIKWIKTCNLFSAEISEIVSHMDHGSEARDGMEMMYDEGSRLCTLI
modifications: left off: GST, end not stated, kept
notes: carboxy-terminal YTH domain of Mmi1, purified GST fusion
B4: SUMO tagged Mmi1^95-122 (domain or fragment, S. pombe, UniProt O74958 95-122, looked up)
chain: GKYDFSRHCTDYGHSYEWPYFRSLRRES
notes: SUMO protein fused at the N-terminus following the His6 tag (modified pET28a); source: E. coli BL21 (Gold), purified (Ni-chelating resin, SEC); not shown: SUMO, N-terminal, kept
B5: GST-tagged Mmi1^1–122: purified GST-tagged Mmi1 amino-terminal fragment, residues 1–122 (protein, UniProt O74958 1-122, looked up, fragment)
chain: T1 sequence (looked up)
modifications: GST tag
B6: SUMO-tagged Mmi1 95-122 (domain or fragment, S. pombe, UniProt O74958 95-122, looked up)
chain: GKYDFSRHCTDYGHSYEWPYFRSLRRES
notes: SUMO stands after the His6 tag at the N-terminus; also called Mmi1wt; source: E. coli BL21 (Gold), purified (Ni-chelating resin, size-exclusion chromatography); not shown: SUMO, N-terminal, kept
B7: Mmi1^95-122 peptide (SUMO tag removed) (peptide, UniProt O74958 95-122, looked up)
chain: GKYDFSRHCTDYGHSYEWPYFRSLRRES
notes: also called EID; EIM peptide; source: E. coli BL21 (Gold), purified as SUMO fusion, incubated with Erh1, SUMO tag removed by ULP1; not shown: His6, N-terminal, cleaved; SUMO, N-terminal, cleaved

For data set [1], the target named is T1, GST-tagged Mmi1^1-122 amino-terminal …. The experiment in a line: pull-down; GST-Mmi1 fusion proteins incubated with Erh1, collected with glutathione-agarose resin, eluted, SDS-PAGE with Coomassie blue staining. The conditions noted are these: both partners purified.
Data set [2] deals with the molecule itself. The experiment in a line: SEC; analytical size-exclusion chromatography, calibrated Superdex75 10/300 GL column; Erh1 alone and Erh1 with Mmi1^95-122 after removal of the SUMO tag by ULP1. Background: In gel filtration, larger molecules generally elute earlier.
A short description of data set [3]: Analytical size-exclusion chromatography (oligomeric state). The class given is physicochemical. Here is the method:
Next, we assessed the stoichiometry of Erh1 and Erh1-Mmi1^95–122 complexes by analytical size-exclusion chromatography (SEC) using a calibrated Superdex75 10/300 GL column (GE Healthcare). Erh1 eluted as a single peak at 11.41 mL, corresponding to an apparent molecular weight (MW) of 26 kDa. With a predicted molecular weight (MW) of ~13.2 kDa, this elution profile likely represents Erh1 homodimers (Fig. 1g). This is consistent with previous reports showing that human ERH protein exists as a dimer in solution[37].
We next purified SUMO-tagged Mmi1^95–122 and incubated it with Erh1, followed by removal of the SUMO tag by ULP1 enzyme.

The test system of data set [4] is Erh1. The experiment in a line: GST pull-down of Erh1 with GST-tagged Mmi1 fragments, Coomassie. The class given is binding, S. pombe. The conditions noted are these: GST-Mmi1 fusion incubated with Erh1, glutathione-agarose, SDS-PAGE. From the text:
Fig. 1 Mmi1 interacts with Erh1 in a 2:2 stoichiometry. a Shown is a schematic representation of the domain architecture of Mmi1. The disorder score from DISOPRED3 Server[62] and the conservation score are shown below. The conservation score is generated by a Protein Residue Conservation Prediction Server[63] from the sequence alignment of Mmi1 orthologues from S. pombe, S. cryophilus, S. octosporus, and S. japonicus. b–d Interactions of GST tagged Mmi1 peptides (GST-Mmi1) with Erh1 visualized by Coomassie blue staining. The indicated GST-Mmi1 fusion proteins or GST alone were incubated with Erh1. The complexes were collected with glutathione-agarose resin and bound proteins were eluted and then subjected to SDS-PAGE. GST or GST-Mmi1 fusion proteins without Erh1 are shown as a negative control. Source data are provided as a Source Data file. e The raw ITC titration data of Erh1 with SUMO tagged Mmi1^95–122 and its fitting curve are shown. KD dissociation constant, DP differential power, N binding stoichiometry, ΔH binding enthalpy. f ITC fitting curves of Erh1 using SUMO tagged Mmi1^95–122 (magenta), Mmi1^106–122 (blue) and Mmi1^95–111 (green) are shown. g Size-exclusion analysis of Erh1 (magenta) and Erh1-Mmi1^95–122 (blue). Marker sizes are 62.9 KDa (Albumin), 46.7 KDa (Ovalbumin), 20.3 KDa (Chymotrypsinogen), 14.6 KDa (Ribonuclease A). Also shown are theoretical monomer sizes (kDa) of Erh1 protein and Mmi1^95–122 peptide TEXT PRINTED IN THE PICTURE: (e) Mmi1^95–122 - Erh1: KD (μM) 0.83±0.19; N (sites) 0.90±0.01; ΔH (kJ per mol) −106±3.02 | (f) Mmi1^95–122: Erh1 KD (μM): 0.83±0.19 | (f) Mmi1^106–122: Erh1 KD (μM): 9.94±1.19 | (f) Mmi1^95–111: Erh1 KD (μM): no binding | (g) Erh1: 13.2 kDa | (g) Mmi1^95–122: 3.5 kDa
A region of Erh1 (residues 1–104) was amplified by PCR from the S. pombe genome and cloned into a modified pET28a (Novagen) vector without a thrombin protease cleavage site (p28a). GST-Mmi1^YTH was sub-cloned from a Mmi1^YTH-p28a construct to a modified PGex-4T1 vector with a TEV protease cleavage site (Tev4T1). […]

Data set [5] deals with B1. Kind of data set: ITC; MicroCal iTC200, 293 K, 20 mM Tris-HCl pH 7.5, 150 mM NaCl; SUMO-tagged Mmi1 peptides titrated into Erh1 in the cell; single-site binding model. The conditions noted are these: both partners purified.
For data set [6], the target named is T2, Erh1 H9A. The experiment in a line: ITC; SUMO-tagged Mmi1 peptides titrated into Erh1 in the sample cell; MicroCal iTC200, 293 K; 20 mM Tris-HCl pH 7.5, 150 mM NaCl; single-site binding model. The conditions noted are these: both partners purified. Background: Isothermal titration calorimetry measures the heat released or taken up as one component is titrated into another.

Data set [7] addresses T3, Erh1 R23A. Described as above. The conditions noted are these: both partners purified.
Data set [8] concerns the target T4, Erh1 D27A. The description is as above. The conditions noted are these: both partners purified.
For data set [9], the target named is T5, Erh1 D68A. The description is as above. The conditions noted are these: both partners purified.
The target of data set [10] is T6, Erh1 E85A. Described as above. The conditions noted are these: both partners purified.
Data set [11] has as its target B1. Kind of data set: SEC; analytical size-exclusion chromatography, calibrated Superdex75 10/300 GL column; Erh1 alone and Erh1 with Mmi1^95-122 after removal of the SUMO tag by ULP1. The conditions noted are these: both partners purified.

Positions count from the first letter of the chain named.

For B1, in data set [1], the binding result is reported as “binds”. Further, in data set [2], the “stoichiometry N” value was 2.
Consider B2, for which the “calculated molecular weight of complex with Erh1 by SEC” value in data set [3] (Erh1 associated with Mmi1^95–122 after SUMO tag removal by ULP1, consistent with 2:2 stoichiometry) was 33 kDa. Besides, in data set [3] (Superdex75 10/300 GL, calibrated, predicted monomer ~13.2 kDa, likely homodimer), the “apparent molecular weight by SEC (Erh1 alone)” value is reported as 26 kDa.
As for B3, the “interaction with Erh1 (GST pull-down)” value in data set [4] is listed as “no interaction”.
With B4, in data set [5], the affinity, expressed as Kd, was 830 ± 190 nM and the “stoichiometry N” value was determined as 0.9.
On to B5, for which, in data set [4], the “interaction with Erh1 (GST pull-down)” value is “bound efficiently to Erh1”.
With B6, the Kd was found to be 1530 ± 205 nM in data set [6]; 1480 ± 1070 nM in data set [7]; 2040 ± 366 nM in [8]; 3.96 ± 0.551 µM in [9]; 2150 ± 291 nM in data set [10]. The “stoichiometry N” value is 1.32 in [6]; 1.28 in data set [7]; 1.14 in data set [8]; 1.34 in data set [9]; 1.08 in data set [10].
On to B7, for which the “stoichiometry N” value in [11] was 1 Mmi1 per Erh1 (printed as 2:2).

Usually stoichiometry N stands for the number of molecules, sites or subunits per partner or assembly. By Kd is commonly meant the constant that tells how readily two partners part at equilibrium.
